Source: the Human Domainome abundance scans (Beltran et al. 2025)
± gives the uncertainty stated by the source.

B1: Poly(rC)-binding protein 1, residues 278 to 350; numbered along this chain, Q15365 (parent)
chain: TQTTHELTIPNNLIGCIIGRQGANINEIRQMSGAQIKIANPVEGSSGRQVTITGSAASISLAQYLINARLSSE

Variants of: B1
Assay: abundance fitness (aPCA) (normalised: wild type 0, dead -1); higher = more abundant; growth selection in yeast, the domain comes from the species named
Details: Homo sapiens
In the case of R48G, the abundance fitness is reported as -0.597 ± 0.043. Variant R48H has an abundance fitness of -0.118 ± 0.085. R48Q gave an abundance fitness of -0.257 ± 0.058. With R48W the abundance fitness was -0.184 ± 0.044. R48L showed an abundance fitness of -0.328 ± 0.046. For R48M, the abundance fitness was -0.217 ± 0.054. R48A gave an abundance fitness of -0.113 ± 0.04. With G54L the abundance fitness was -0.877 ± 0.12. With G54A the abundance fitness was -0.916 ± 0.083. Variant G54E has an abundance fitness of -0.838 ± 0.13. In the case of G54C, the abundance fitness is reported as -0.85 ± 0.18. Work on G54D yielded an abundance fitness of -0.834 ± 0.19. G54W showed an abundance fitness of -0.912 ± 0.14. G54P gave an abundance fitness of -0.805 ± 0.12. In the case of G54S, the abundance fitness is reported as -0.881 ± 0.11. With G54Y the abundance fitness was -1.08 ± 0.46. With G54H the abundance fitness was -0.465 ± 0.21. G54F gave an abundance fitness of -0.507 ± 0.25. Work on G54M yielded an abundance fitness of -1.02 ± 0.26. G54Q gave an abundance fitness of -1.11 ± 0.29. Variant G54T has an abundance fitness of -0.854 ± 0.12. Variant G54K has an abundance fitness of -0.804 ± 0.18. For S58F, the abundance fitness was -0.149 ± 0.14. For S58K, the abundance fitness was -0.3 ± 0.06. In the case of S58T, the abundance fitness is reported as -0.241 ± 0.051. In the case of S58D, the abundance fitness is reported as 0.009 ± 0.068. S58M showed an abundance fitness of -0.354 ± 0.06. S58C showed an abundance fitness of -0.241 ± 0.076. S58W showed an abundance fitness of -0.949 ± 0.11. In the case of S58G, the abundance fitness is reported as -0.227 ± 0.035. In the case of S58E, the abundance fitness is reported as 0.052 ± 0.038. S58L gave an abundance fitness of -0.801 ± 0.076. For S58V, the abundance fitness was -0.568 ± 0.052. With S58I the abundance fitness was -0.988 ± 0.43. With S58P the abundance fitness was -0.47 ± 0.082. S58Q gave an abundance fitness of 0.08 ± 0.045. Work on S58N yielded an abundance fitness of 0.009 ± 0.14. Work on P41V yielded an abundance fitness of -0.218 ± 0.043. With P41Y the abundance fitness was -0.021 ± 0.1. For A57W, the abundance fitness was -0.247 ± 0.055. With A57E the abundance fitness was 0.088 ± 0.05. Variant A57N has an abundance fitness of 0.061 ± 0.086. In the case of A57G, the abundance fitness is reported as -0.126 ± 0.037. For A57V, the abundance fitness was -0.243 ± 0.046. For A57L, the abundance fitness was -0.327 ± 0.055. A57C gave an abundance fitness of -0.035 ± 0.077. A57D gave an abundance fitness of 0.074 ± 0.071. With A57S the abundance fitness was 0.016 ± 0.042. Work on A57R yielded an abundance fitness of 0.059 ± 0.035. For A57F, the abundance fitness was -0.096 ± 0.12. For A57P, the abundance fitness was -0.02 ± 0.053. Variant A57Q has an abundance fitness of 0.068 ± 0.065. For A57Y, the abundance fitness was -0.194 ± 0.12. A57I gave an abundance fitness of -0.127 ± 0.14. With A57M the abundance fitness was -0.204 ± 0.069. Work on A57T yielded an abundance fitness of -0.125 ± 0.056. A57K gave an abundance fitness of 0.116 ± 0.051. A57H showed an abundance fitness of 0.051 ± 0.11. With S55I the abundance fitness was -0.882 ± 0.31. S55M showed an abundance fitness of -0.536 ± 0.1. For S55L, the abundance fitness was -0.786 ± 0.1. For S55T, the abundance fitness was 0.001 ± 0.047. Variant S55Y has an abundance fitness of -0.119 ± 0.17. For S55D, the abundance fitness was -0.13 ± 0.068. With S55W the abundance fitness was -0.575 ± 0.065. S55A showed an abundance fitness of -0.239 ± 0.042. For S55E, the abundance fitness was -0.086 ± 0.034. Work on S55H yielded an abundance fitness of -0.047 ± 0.085. For S55Q, the abundance fitness was -0.336 ± 0.051. Variant S55G has an abundance fitness of -0.21 ± 0.034. With S55C the abundance fitness was -0.252 ± 0.069. With S55K the abundance fitness was -0.25 ± 0.046. S55F gave an abundance fitness of -0.551 ± 0.33. Variant S55V has an abundance fitness of -0.396 ± 0.056. For S55P, the abundance fitness was -0.102 ± 0.049. S55N showed an abundance fitness of -0.017 ± 0.07. S60C gave an abundance fitness of -0.098 ± 0.062. With S60E the abundance fitness was 0.124 ± 0.042. S60Y showed an abundance fitness of -0.298 ± 0.11. In the case of S60F, the abundance fitness is reported as -0.102 ± 0.12. Work on S60V yielded an abundance fitness of -0.352 ± 0.073. Variant S60I has an abundance fitness of -0.337 ± 0.22. In the case of S60L, the abundance fitness is reported as -0.354 ± 0.075. In the case of S60P, the abundance fitness is reported as -0.635 ± 0.084. For S60Q, the abundance fitness was 0.023 ± 0.058. In the case of S60K, the abundance fitness is reported as -0.047 ± 0.063. Work on S60D yielded an abundance fitness of 0.191 ± 0.061. For S60T, the abundance fitness was 0.012 ± 0.046. For S60H, the abundance fitness was 0.051 ± 0.084. Work on S60A yielded an abundance fitness of -0.064 ± 0.037. With S60G the abundance fitness was -0.05 ± 0.034. In the case of G47T, the abundance fitness is reported as 0.008 ± 0.052. With G47L the abundance fitness was 0 ± 0.03. G47C showed an abundance fitness of -0.097 ± 0.062. G47K showed an abundance fitness of -0.01 ± 0.052. Variant G47F has an abundance fitness of -0.116 ± 0.096. For G47V, the abundance fitness was 0.017 ± 0.029. For G47R, the abundance fitness was -0.062 ± 0.035. Variant G47Y has an abundance fitness of -0.008 ± 0.085. G47H gave an abundance fitness of -0.129 ± 0.094. Work on G47P yielded an abundance fitness of -0.491 ± 0.075. G47D showed an abundance fitness of 0.032 ± 0.062. Work on G47I yielded an abundance fitness of -0.379 ± 0.18. G47W gave an abundance fitness of -0.073 ± 0.047. For G47A, the abundance fitness was 0.013 ± 0.036. Work on G47N yielded an abundance fitness of 0.047 ± 0.099. G47E showed an abundance fitness of 0.067 ± 0.039. G47S showed an abundance fitness of 0.023 ± 0.043. Work on G47M yielded an abundance fitness of 0.043 ± 0.041. G47Q showed an abundance fitness of 0.054 ± 0.056. With L61C the abundance fitness was 0.022 ± 0.063. L61E gave an abundance fitness of 0.091 ± 0.033. L61F gave an abundance fitness of -0.074 ± 0.097. In the case of L61G, the abundance fitness is reported as -0.504 ± 0.044. For L61D, the abundance fitness was 0.02 ± 0.07. For L61I, the abundance fitness was 0.012 ± 0.089. Variant Q49D has an abundance fitness of -0.263 ± 0.069. Work on Q49R yielded an abundance fitness of 0.049 ± 0.029. Work on Q49A yielded an abundance fitness of 0.006 ± 0.043. Variant Q49E has an abundance fitness of -0.204 ± 0.064. For Q49H, the abundance fitness was -0.073 ± 0.069. Variant Q49S has an abundance fitness of 0.008 ± 0.04. Q49V gave an abundance fitness of 0.043 ± 0.034. With Q49F the abundance fitness was -0.533 ± 0.16. Q49N gave an abundance fitness of -0.054 ± 0.058. Q49P gave an abundance fitness of -0.298 ± 0.064. Work on Q49Y yielded an abundance fitness of -0.543 ± 0.12. Q49W gave an abundance fitness of -0.613 ± 0.071. Work on Q49I yielded an abundance fitness of -0.033 ± 0.063. In the case of Q49C, the abundance fitness is reported as 0.006 ± 0.051. Variant Q49M has an abundance fitness of -0.081 ± 0.045. For Q49K, the abundance fitness was -0.049 ± 0.063. Q49L gave an abundance fitness of 0.03 ± 0.041. Variant T53N has an abundance fitness of -0.385 ± 0.16. In the case of T53V, the abundance fitness is reported as -0.118 ± 0.039. Work on T53F yielded an abundance fitness of -0.321 ± 0.12. T53Q gave an abundance fitness of -0.075 ± 0.053. Variant T53A has an abundance fitness of -0.126 ± 0.036. With T53D the abundance fitness was -0.51 ± 0.11. Variant T53K has an abundance fitness of 0.075 ± 0.049. T53Y gave an abundance fitness of -0.129 ± 0.13. In the case of T53R, the abundance fitness is reported as -0.007 ± 0.031. For T53M, the abundance fitness was -0.063 ± 0.056. In the case of T53P, the abundance fitness is reported as -0.777 ± 0.12. In the case of T53G, the abundance fitness is reported as -0.308 ± 0.036. In the case of T53C, the abundance fitness is reported as -0.137 ± 0.071. Work on T53W yielded an abundance fitness of -0.274 ± 0.049. T53I gave an abundance fitness of -0.125 ± 0.12. T53S showed an abundance fitness of -0.041 ± 0.042. T53H gave an abundance fitness of -0.491 ± 0.15. Work on I52H yielded an abundance fitness of -0.927 ± 0.29. I52W showed an abundance fitness of -1.02 ± 0.16. For I52N, the abundance fitness was -0.878 ± 0.47. Variant I52M has an abundance fitness of -0.225 ± 0.053. I52S gave an abundance fitness of -0.574 ± 0.09. With I52R the abundance fitness was -0.996 ± 0.1. I52F gave an abundance fitness of -0.694 ± 0.26. I52T gave an abundance fitness of -0.739 ± 0.15. Work on I52P yielded an abundance fitness of -0.698 ± 0.15. I52E showed an abundance fitness of -0.732 ± 0.097. Variant I52L has an abundance fitness of -0.039 ± 0.037. I52Y gave an abundance fitness of -1.09 ± 0.39. With I52K the abundance fitness was -0.631 ± 0.098. I52C gave an abundance fitness of -1.03 ± 0.27. Variant I52D has an abundance fitness of -0.583 ± 0.25. For I52V, the abundance fitness was -0.218 ± 0.037. Variant I52G has an abundance fitness of -1.05 ± 0.1.
